Assay results from patent publication US8513380B2, “Peptides for binding fibrinogen and fibrin” (Georgia Tech Research Corporation, priority 2009, dated 2013).
Where no end group is shown, it is not given here.

Experiments:
fibrinogen [1] = molecular target: T1, fibrinogen (Homo sapiens, UniProt P02675+P02679); experiment: ELISA specificity assay: soluble Gxxx tetrapeptides competing with immobilized GPRP-FnIII9-10-C; format: binding; settings: tetrapeptide in 10^2- to 10^4-fold molar excess; one-hour pre-incubation
T1 sequence (P02679 27-437 isoform P02679-2 limits assumed): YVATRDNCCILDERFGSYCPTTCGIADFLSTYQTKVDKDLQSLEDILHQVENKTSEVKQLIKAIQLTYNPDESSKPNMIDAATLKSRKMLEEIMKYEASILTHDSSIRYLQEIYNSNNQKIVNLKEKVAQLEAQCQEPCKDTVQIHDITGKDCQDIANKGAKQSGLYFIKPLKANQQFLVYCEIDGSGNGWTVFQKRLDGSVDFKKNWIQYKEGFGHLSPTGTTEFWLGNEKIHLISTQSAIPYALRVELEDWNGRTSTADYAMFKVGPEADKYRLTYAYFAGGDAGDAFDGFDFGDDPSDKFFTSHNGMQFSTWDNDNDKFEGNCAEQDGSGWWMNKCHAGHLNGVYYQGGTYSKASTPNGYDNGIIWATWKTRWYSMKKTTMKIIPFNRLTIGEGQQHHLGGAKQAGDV
T1 sequence (P02675 31-491): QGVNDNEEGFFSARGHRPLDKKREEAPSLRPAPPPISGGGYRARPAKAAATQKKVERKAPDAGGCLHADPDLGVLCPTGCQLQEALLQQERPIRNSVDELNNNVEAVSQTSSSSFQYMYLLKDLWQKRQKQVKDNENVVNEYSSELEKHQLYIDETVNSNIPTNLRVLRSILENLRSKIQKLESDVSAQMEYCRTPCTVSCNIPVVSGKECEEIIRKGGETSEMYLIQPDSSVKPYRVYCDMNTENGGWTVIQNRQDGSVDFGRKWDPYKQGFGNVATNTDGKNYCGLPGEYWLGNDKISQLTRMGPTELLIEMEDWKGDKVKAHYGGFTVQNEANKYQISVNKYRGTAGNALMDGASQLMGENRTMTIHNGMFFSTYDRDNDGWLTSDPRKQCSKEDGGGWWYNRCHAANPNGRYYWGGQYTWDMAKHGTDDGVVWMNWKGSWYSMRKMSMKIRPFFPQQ
T1 sequence (P02671 20-629 partner limits assumed): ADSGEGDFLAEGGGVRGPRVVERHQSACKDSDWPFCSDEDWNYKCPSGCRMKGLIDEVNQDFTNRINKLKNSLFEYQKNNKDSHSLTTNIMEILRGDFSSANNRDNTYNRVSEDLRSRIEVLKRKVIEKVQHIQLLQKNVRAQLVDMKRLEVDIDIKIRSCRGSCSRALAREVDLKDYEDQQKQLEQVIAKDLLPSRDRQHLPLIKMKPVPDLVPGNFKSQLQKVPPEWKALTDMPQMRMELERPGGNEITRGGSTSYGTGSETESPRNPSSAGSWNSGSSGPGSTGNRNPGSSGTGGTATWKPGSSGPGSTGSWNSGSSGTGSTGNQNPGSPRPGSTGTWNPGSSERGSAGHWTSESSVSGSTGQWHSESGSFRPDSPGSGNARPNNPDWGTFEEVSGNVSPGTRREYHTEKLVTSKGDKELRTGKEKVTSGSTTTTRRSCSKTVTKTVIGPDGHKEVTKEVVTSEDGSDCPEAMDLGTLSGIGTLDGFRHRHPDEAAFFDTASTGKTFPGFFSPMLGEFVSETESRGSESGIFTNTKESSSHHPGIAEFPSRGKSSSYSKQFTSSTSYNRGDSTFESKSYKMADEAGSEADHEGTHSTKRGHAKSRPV
Description: A modified ELISA technique was used to establish the affinity of fibrinogen for the various Gxxx-FnIII9-10-C (SEQ ID NO:20) proteins covalently immobilized on maleimide-activated plates via their C-terminal cysteines. Sulfhydryl-containing proteins/peptides were added to pre-blocked maleimide-activated 96-well plates (Pierce, Thermo Scientific, Rockford, Ill.) at 10 μg/mL in conjugation buffer (CB) comprising 150 mM NaCl, 100 mM phosphate, 10 mM EDTA, pH 7.2, with attachment occurring via maleimide-sulfhydryl (thioether) linkages. TCEP (1 mM) was added to maintain sulfhydryl groups in the reduced form. Following, unreacted maleimide groups were quenched with 20 μg/mL cysteine in CB. Human fibrinogen (25 μg/mL) was incubated with the substrates and unbound protein removed by washing. Bound fibrinogen was detected using HRP-conjugated goat anti-fibrinogen antibody (MP Biomedicals #55239) and 1-Step™ Ultra TMB-ELISA (Pierce). The TMB reaction was quenched with 1 M H2SO4 before measuring the Abs450 nm using the SPECTRAMAX® M2 (Molecular Devices, Sunnyvale, Calif.). All intervening wash steps were conducted using washing buffer (WB) comprising 150 mM NaCl, 100 mM phosphate, 0.05% Tween-20, pH 7.2; all binding steps were conducted using binding buffer (BB) comprising PBS+1% BSA. For basic affinity assays, the concentration of the fusion proteins was varied. For specificity assays, varying concentrations of Gxxx (SEQ ID NO:20) tetrapeptides (Genscript, Piscataway, N.J.) were added to the fibrinogen solution during incubation with the covalently immobilized proteins.
The tetrapeptides GPRV (SEQ ID NO:2) and GHRP (SEQ ID NO:3) are also known to bind fibrinogen via knob:pocket interactions, albeit with reduced affinities (Laudano A P, et al. Biochemistry 1980, 19(5):1013-1019).

fibrin = fibrin (Homo sapiens, UniProt P02675+P02679); settings: cited from earlier work
fibrinogen [2] = molecular target: T2, fibrinogen (Homo sapiens, UniProt P02675+P02679); experiment: Turbidity and percent clottability with PEGylated knob peptides; format: biochemical; settings: 1:1 molar ratio; for percentage of clottable protein: no-peptide ˜95%
T2 sequence (P02679 27-433 limits assumed): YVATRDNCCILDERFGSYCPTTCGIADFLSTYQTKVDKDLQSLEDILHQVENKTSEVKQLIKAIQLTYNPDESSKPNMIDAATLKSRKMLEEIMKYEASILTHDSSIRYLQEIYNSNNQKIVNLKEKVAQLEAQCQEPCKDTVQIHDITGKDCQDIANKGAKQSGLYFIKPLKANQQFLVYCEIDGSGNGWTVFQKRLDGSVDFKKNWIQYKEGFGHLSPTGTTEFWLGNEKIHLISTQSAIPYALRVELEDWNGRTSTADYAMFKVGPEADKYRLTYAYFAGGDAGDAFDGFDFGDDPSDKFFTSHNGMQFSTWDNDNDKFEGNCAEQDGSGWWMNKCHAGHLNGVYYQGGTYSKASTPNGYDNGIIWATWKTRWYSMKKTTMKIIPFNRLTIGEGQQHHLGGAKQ
T2 sequence (P02675 31-491): T1 sequence (P02675 31-491)
T2 sequence (P02671 20-629 partner limits assumed): T1 sequence (P02671 20-629 partner limits assumed)
Description: Polymerization rate (turbidity curves), percent clottable protein, fiber structure (SEM), and viscoelastic properties of fibrin polymerized in the presence or absence of PEGylated-GPRPFPAC (5 kDa linear PEG chain, SED ID NO:53) at a 1:1 molar ratio were evaluated.
The turbidity curves upon initiating thrombin-activated polymerization and the amount of soluble protein remaining in the clot liquor after polymerization (percent clottable protein) were evaluated. All assays were performed with 1 mg/ml fibrinogen, 1 U/ml thrombin, 1 U/mL factor XIIIa, and 5 mM CaCl2; all PEG conjugates were tested at a 1:1 molar ratio.

## GPRP
Fibrinogen [1]
  competition with immobilized GPRP-FnIII9-10-C for binding to fibrinogen: dose-dependent inhibition of fibrinogen binding
fibrin
  excess necessary to completely inhibit fibrin assembly: ≥ 100 -fold excess

## GPSPFPAC-PEG: control peptide conjugate, GPSPFPAC (SEQ ID NO:18) with PEG (also: PEG conjugate, site not given here; listed as Homo sapiens) [reference compound]
Fibrinogen [2]
  percentage of clottable protein: did not change

## GPRPFPAC-PEG: GPRPFPAC conjugated to 5 kDa linear PEG chain (also: conjugated to 5 kDa linear PEG, site not given here; listed as Homo sapiens)
Fibrinogen [2]; 1 mg/ml fibrinogen, 1 U/ml thrombin, 1 U/mL factor XIIIa
  maximum absorbance turbidity value: lower maximum absorbance turbidity value
Fibrinogen [2]
  percentage of clottable protein: 92%
